{
  "source": "paper PMC7676268",
  "biological_target": "SARS-CoV-2 glycoprotein S (SARS-CoV-2) (UniProt P0DTC2)",
  "experiment": "cryo-EM structure; in situ cryo-electron tomography on cryo-FIB milled lamellae of chemically fixed infected cells; subtomogram average of 219 S trimers from six tomograms of intracellular virions; C3 symmetry applied after it was revealed without being imposed",
  "data": [
    {"substance": "SARS-CoV-2 glycoprotein S (from UniProt P0DTC2 14-1273) (natural protein)", "values": [
      {"measurement": "stoichiometry N", "result": 3}
    ]}
  ]
}
